Numbering of substitutions follows the chain as printed. Numbers in names are those of the source.
B1: GFAT-1 (human GFAT-1 isoform 2, hGFAT1) (Homo sapiens; R306H) (protein)
chain: CGIFAYLNYHVPRTRREILETLIKGLQRLEYRGYDSAGVGFDGGNDKDWEANACKIQLIKKKGKVKALDEEVHKQQDMDLDIEFDVHLGIAHTRWATHGEPSPVNSHPQRSDKNNEFIVIHNGIITNYKDLKKFLESKGYDFESETDTETIAKLVKYMYDNRESQDTSFTTLVERVIQQLEGAFALVFKSVHFPGQAVGTRRGSPLLIGVRSEHKLSTDHIPILYRTGKDKKGSCNLSRVDSTTCLFPVEEKAVEYYFASDASAVIEHTNRVIFLEDDDVAAVVDGHLSIHRIKRTAGDHPGRAVQTLQMELQQIMKGNFSSFMQKEIFEQPESVVNTMRGRVNFDDYTVNLGGLKDHIKEIQRCRRLILIACGTSYHAGVATRQVLEELTELPVMVELASDFLDRNTPVFRDDVCFFLSQSGETADTLMGLRYCKERGALTVGITNTVGSSISRETDCGVHINAGPEIGVASTKAYTSQFVSLVMFALMMCDDRISMQERRKEIMLGLKRLPDLIKEVLSMDDEIQKLATELYHQKSVLIMGRGYHYATCLEGALKIKEITYMHSEGILAGELKHGPLALVDKLMPVIMIIMRDHTYAKCQNALQQVVARQGRPVVICDKEDTETIKNTKRTIKVPHSVDCLQGILSVIPLQLLAFHLAVLRGYDVDFPRNLAKSVTVE
notes: full length, internal His6-tag between Gly299 and Asp300 (kept), expressed in Sf21 insect cells (MultiBac), Ni-NTA and SEC purified
B2: GFAT-1 (human GFAT-1 isoform 2, hGFAT1) (Homo sapiens; S308D) (protein)
chain: B1 chain with H287R, S289D
notes: as for B1
B3: GFAT-1 (human GFAT-1 isoform 2, hGFAT1) (Homo sapiens; L508R) (protein)
chain: B1 chain with H287R, L489R
notes: as for B1

These proteins were tested on NC(=O)CC[C@H](N)C(=O)O (assay: purified protein). Details: 6 mM Frc6P, 1 mM APAD, 50 mM KCl, 100 mM potassium phosphate pH 7.5, 37 °C.
Type: biochemical, Homo sapiens
For B1, the Km was 1600 ± 270 µM, the kcat was 4.8 ± 0.26 s⁻¹ and the kcat/Km was 3000 M⁻¹ s⁻¹.
In the case of B2, the Km is reported as 1300 ± 230 µM, the kcat is reported as 1.5 ± 0.08 s⁻¹ and the kcat/Km is reported as 1200 M⁻¹ s⁻¹.
B3 showed a Km of 1000 ± 100 µM, a kcat of 3 ± 0.08 s⁻¹ and a kcat/Km of 3000 M⁻¹ s⁻¹.

Reference: PMC8041777, “Protein kinase A controls the hexosamine pathway by tuning the feedback inhibition of GFAT-1” (Nature Communications, 2021)
